Source: US20220047631A1 (UNIVERSITY OF CHICAGO, published 2022)
Positions count from the first letter of the chain named. Where no end group is shown, it is not given here. The star is where a group is joined. GalNAc = N-acetyl galactosamine (O-linked to Thr, Tn antigen); Biotin = O=C1N[C@H]2[C@H](CS[C@H]2CCCCC(=O)*)N1

What was measured:
GTKA = target: T1, GTKA; test: ELISA; x axis = coating concentration of the peptide; 237Ab fixed at 10 µg/ml [left]
T1 construct: truncation series from GTKAAAA; also called Tn-peptide GTKA, immobilized (C-terminal truncation)
T1 peptide: Biotin-APLVPTQRERGT(GalNAc)KA

GTK = target: T2, GTK; test: as above
T2 construct: truncation series from GTKAAAA; also called Tn-peptide GTK, immobilized (C-terminal truncation)
T2 peptide: Biotin-APLVPTQRERGT(GalNAc)K

[1] = target: T3, Tn-OTS8 peptide ERGT(GalNAc)KPPLEELSGK-biotin, monomer (murine); test: flow cytometry of CAR-transduced mouse T cells with biotinylated peptide
T3 construct: also called glycosylated OTS-8 peptide (biotinylated)
T3 peptide: ERGT(GalNAc)KPPLEELSGK(Biotin)

[2] = target: T4, Tn-OTS8 peptide KAPLVPTQRERGT(GalNAc)KPPLEELSTSATSDHDH (murine, GalNAc (Tn) on the Thr of ...RERGT(GalNAc)KPP...); test: ELISA, peptide coated at 2.5 or 5 µg/ml, biotinylated scFv, streptavidin-HRP
T4 construct: Coated on ELISA plates at 2.5 or 5 µg/ml; also called OTS8p with Tn
T4 peptide: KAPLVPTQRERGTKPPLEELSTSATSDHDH

[3] = target: T3, Tn-OTS8 peptide …; test: flow cytometry of yeast-displayed clone with 1 or 10 nM Tn-OTS8 peptide
Method: FIG. 20. […] 10 clones were isolated from Tn-OTS8 peptide-sorted post-sort-4 and post-sort-5 populations. Each clone was stained with 1 or 10 nM Tn-OTS8 peptide and analyzed by flow cytometry. The mean fluorescence units (MFUs) of each clone is plotted on Y-axis. […] In addition, plasmid DNA was isolated from each clone to determine the kind of mutation(s), and frequency of mutation(s) (n). The sequence of wild-type (wt) and mutated residues is shown in black and maroon, respectively.

[4] = target: T3, Tn-OTS8 peptide …; test: Table 3, column 'Tn-linked antigen' recognized by the scFv
[5] = target: T3, Tn-OTS8 peptide …; test: yeast display, flow cytometry titration with peptide
[6] = target: T3, Tn-OTS8 peptide …; test: flow cytometry titration of the yeast-displayed mutant with biotinylated OTS8p, 0.1 to 100 nM [A]
[7] = target: T3, Tn-OTS8 peptide …; test: yeast display titration compared with a literature value
[8] = target: T3, Tn-OTS8 peptide …; test: yeast display, 30 nM biotinylated peptide chased with 100 nM unbiotinylated peptide over 4 hours
Method: (§1) FIG. 21. […] (B) To determine their off-rates, each mutant was stained with 30 nM biotinylated Tn-OTS8 peptide. After washing, the mutants were stained with 100 nM Tn-OTS8 peptide (not biotinylated). The decrease in binding to biotinylated Tn-OTS8p by each mutant was measured over a period of 4 hours, to calculate approximate half-lives (t_{1/2}) and off-rates (koff). […] See Brooks et al., Proc. Natl. Acad. Sci. (USA) 107(22):10056-10061 (2010).

[9] = target: T3, Tn-OTS8 peptide …; test: yeast display dissociation compared with a literature value
Method: as §1

[10] = target: T3, Tn-OTS8 peptide …; test: dissociation on yeast: 30 nM biotinylated Tn-OTS8 peptide, wash, chase with 100 nM non-biotinylated peptide; % binding over 4 hours [B]
Method: as §1

[11] = target: T3, Tn-OTS8 peptide …; test: dissociation on yeast: 30 nM biotinylated Tn-OTS8 peptide, wash, chase with 100 nM non-biotinylated peptide; sheet adds: 30-fold slower than 237mAb:OTS8p [B]
Method: as §1

Tn-OTS8 peptide tetramer = target: T5, Tn-OTS8 peptide tetramer (murine, UniProt P22629 37-163 (Streptomyces avidinii entry), limits assumed, PE label; GalNAc (Tn) on Thr 4; C-terminal Lys-biotin); test: flow cytometry of yeast-displayed clone with 10 nM OTS8p tetramer [B]
T5 construct: How the tetramer was made is not spelled out; streptavidin-PE is the reagent named with it; also called Tn-OTS8p tetramer; tetramers of glycosylated OTS-8 peptide
T5 sequence (P22629 37-163 limits assumed): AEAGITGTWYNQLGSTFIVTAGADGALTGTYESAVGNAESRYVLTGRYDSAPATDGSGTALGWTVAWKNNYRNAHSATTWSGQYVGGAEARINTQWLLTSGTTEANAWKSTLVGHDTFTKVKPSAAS

B1: 237 monoclonal antibody (antibody, V domains shown)
VH: QVQLQQSGGGLVQPGGSMKIFCAASGFTFSDAWMDWVRQSPEKGLEWVAEIRNKANNHETYYAESVKGRFTITRDDSKSRMSLQMNSLRAEDTGIYYCSGGKVRNAYWGQGTTVTVSS
VL: DIQLTQSPLSLPVSLGDQASISCRSSQSLVHSNGNTYLHWYLQKPGQSPKLLIYKVSNRFSGVPDRFSGSGSGTDFTLKISSVEAEDLGVYFCSQSTHVPTFGGGTKLEIK
notes: Murine monoclonal IgG
**Q.** Does B1 bind (GTKA)?
**A.** Result: no binding (tested: 1000 nM peptide for coating)

**Q.** Does B1 bind (GTK)?
**A.** Result: no binding (tested: 1000 nM peptide for coating)

B2: 237-LGQ-CAR on transduced C57BL/6 mouse T cells (other)
scFv: DIQLTQSPLSLPVSLGDQASISCRSSQSLVHSNGNTYLHWYLQKPGQSPKLLIYKVSNRFSGVPDRFSGSGSGTDFTLKISSVEAEDLGVYFCSQSLGQPTFGGGTKLEIKGGGGSGGGGSGGGGSQVQLQQSGGGLVQPGGSMKIFCAASGFTFSDAWMDWVRQSPEKGLEWVAEIRNKANNHETYYAESVKGRFTITRDDSKSRMSLQMNSLRAEDTGIYYCSGGKVRNAYWGQGTTVTVSS
notes: also called CAR with dual specificity (LGQ); not shown: hinge, CD28 and CD3zeta parts of the CAR
**Q.** Does B2 bind [1]?
**A.** Result: binds

B3: soluble 237 scFv monomer (biotinylated) (scFv)
scFv: B2 scFv with L97T, G98H, Q99V
modifications: biotin on the C-terminal Avitag
notes: also called monomeric scFv; b237; not shown: N-terminal 6xHis tag; C-terminal Avitag
**Q.** For B3, which Kd [2] is on record?
**A.** Its Kd is 5 nM.

B4: -VWE (wt: STHV) (scFv)
scFv (VL-linker-VH): B2 scFv with L97V, G98W, Q99E
notes: isolated after sort 5 with Tn-OTS8p; also called clone O5-8
**Q.** Does B4 bind [3]?
**A.** Result: binds

B5: 237-TNGK-CAR on transduced C57BL/6 mouse T cells (other)
scFv: B2 scFv with S96T, L97N, Q99K
notes: also called CAR with dual specificity (TNGK); not shown: hinge, CD28 and CD3zeta parts of the CAR
**Q.** Does B5 bind [1]?
**A.** Result: binds

B6: --WG (wt: STHV) (scFv)
scFv (VL-linker-VH): B2 scFv with L97T, G98W, Q99G
notes: isolated after sort 4 with Tn-OTS8p; also called clone O4-3
**Q.** Does B6 bind [3]?
**A.** Result: binds

B7: yeast-displayed 237 scFv TNGK mutant (scFv, not shown: large carriers; small tags and cut ends)
scFv: B2 scFv with S96T, L97N, Q99K
**Q.** Does B7 bind [4]?
**A.** Result: binds

B8: T-WA (wt: STHV) (scFv)
scFv (VL-linker-VH): B2 scFv with S96T, L97T, G98W, Q99A
notes: isolated after sort 4 with Tn-OTS8p; also called clones O4-1, O4-2, O4-9
**Q.** Does B8 bind [3]?
**A.** Result: binds

B9: yeast-displayed 237 scFv WE mutant (scFv)
scFv: B2 scFv with L97T, G98W, Q99E
notes: not shown: yeast display carriers: N-terminal Aga2 and HA tag, C-terminal c-myc tag
**Q.** For B9, which Kd [5] is on record?
**A.** Its Kd is about 5 nM.

**Q.** And the Kd [6]?
**A.** The Kd was 4.3 nM.

**Q.** What about the “fold higher affinity than the 237 IgG Fab domain (literature SPR)” value [7] of the same binder?
**A.** The value was about 30 fold.

**Q.** What about the “half-life (t1/2)” value [8] of the same binder?
**A.** The value was about 30 min.

**Q.** And the “fold slower off-rate than the 237 monoclonal antibody Fab with OTS8 peptide (literature)” value [9]?
**A.** The value was 30 fold.

**Q.** What about the t1/2 [10] of the same binder?
**A.** The t1/2 was 27 min.

**Q.** What about the koff [11] of the same binder?
**A.** The koff was 0.00042 s⁻¹.

B10: yeast-displayed 237 scFv LGQ mutant (scFv)
scFv: B2 scFv
notes: as for B9
**Q.** Does B10 bind [4]?
**A.** Result: binds

B11: MLV (wt CDRL2: KVS) (scFv)
scFv (VL-linker-VH): B2 scFv with K55M, V56L, S57V, L97T, G98H, Q99V
**Q.** Does B11 bind (Tn-OTS8 peptide tetramer)?
**A.** Result: no binding (tested: 10 nM)
